Measurements published in the supplement of paper PMC9876800.

System: peptide library, one residue held at a place counted from the S/T acceptor
Assay: relative phosphorylation of the sub-library (ratio to the mean residue at this position); higher = residue favoured
Procedure, shortened: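 In 384-well plates, purified recombinant kinases (human or orthologue constructs) were incubated for 90 min under kinase-specific conditions with 50 μM biotinylated degenerate peptide sub-libraries and 50 μM ATP spiked with γ-32P-ATP. Each sub-library fixed a single residue at one position around a central Ser/Thr. Relative sub-library phosphorylation, measured by phosphorimaging and densitometry of streptavidin membrane spots, is given as a ratio to the mean residue at that position.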

Sequence of CDK8, construct: Full length*, human (P49336 whole entry, looked up): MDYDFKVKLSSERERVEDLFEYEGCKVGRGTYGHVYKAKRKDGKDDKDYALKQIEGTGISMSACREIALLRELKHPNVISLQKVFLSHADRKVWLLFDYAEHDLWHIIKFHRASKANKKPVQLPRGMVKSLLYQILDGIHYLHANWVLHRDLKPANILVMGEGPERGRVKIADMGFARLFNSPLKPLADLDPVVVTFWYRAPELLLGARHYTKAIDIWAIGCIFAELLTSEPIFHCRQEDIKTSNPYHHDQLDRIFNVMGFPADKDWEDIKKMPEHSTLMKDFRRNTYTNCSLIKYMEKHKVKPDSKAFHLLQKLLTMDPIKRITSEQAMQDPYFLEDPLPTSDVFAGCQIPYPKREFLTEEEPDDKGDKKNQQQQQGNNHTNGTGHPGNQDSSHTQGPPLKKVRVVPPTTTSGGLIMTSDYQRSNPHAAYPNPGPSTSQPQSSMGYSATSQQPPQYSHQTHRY
Sequence of CDK7, construct: Full length, human (P50613 whole entry, looked up): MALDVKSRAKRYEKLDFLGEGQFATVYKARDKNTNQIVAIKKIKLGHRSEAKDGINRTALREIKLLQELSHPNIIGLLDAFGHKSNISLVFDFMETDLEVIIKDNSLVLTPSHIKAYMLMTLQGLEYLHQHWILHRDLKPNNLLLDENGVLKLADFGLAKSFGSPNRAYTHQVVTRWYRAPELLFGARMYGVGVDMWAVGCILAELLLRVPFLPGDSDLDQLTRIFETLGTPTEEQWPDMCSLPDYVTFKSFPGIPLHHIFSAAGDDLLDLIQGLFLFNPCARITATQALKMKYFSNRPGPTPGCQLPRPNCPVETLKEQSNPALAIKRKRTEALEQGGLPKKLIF
Sequence of CLK4, construct: aa128-481, human (Q9HAZ1 128-481, looked up): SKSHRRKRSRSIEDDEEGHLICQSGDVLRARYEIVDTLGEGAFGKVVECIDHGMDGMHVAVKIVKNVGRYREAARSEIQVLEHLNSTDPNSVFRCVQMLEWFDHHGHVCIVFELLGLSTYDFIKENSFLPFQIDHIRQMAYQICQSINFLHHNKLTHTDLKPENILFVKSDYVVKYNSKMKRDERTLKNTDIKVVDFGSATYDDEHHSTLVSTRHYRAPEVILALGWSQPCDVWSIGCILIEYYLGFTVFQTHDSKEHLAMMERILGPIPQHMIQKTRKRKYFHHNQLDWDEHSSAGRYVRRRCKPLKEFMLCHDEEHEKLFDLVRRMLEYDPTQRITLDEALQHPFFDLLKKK
Sequence of EIF2AK3, construct: aa536-1116, human (Q9NZJ5 536-1116, looked up): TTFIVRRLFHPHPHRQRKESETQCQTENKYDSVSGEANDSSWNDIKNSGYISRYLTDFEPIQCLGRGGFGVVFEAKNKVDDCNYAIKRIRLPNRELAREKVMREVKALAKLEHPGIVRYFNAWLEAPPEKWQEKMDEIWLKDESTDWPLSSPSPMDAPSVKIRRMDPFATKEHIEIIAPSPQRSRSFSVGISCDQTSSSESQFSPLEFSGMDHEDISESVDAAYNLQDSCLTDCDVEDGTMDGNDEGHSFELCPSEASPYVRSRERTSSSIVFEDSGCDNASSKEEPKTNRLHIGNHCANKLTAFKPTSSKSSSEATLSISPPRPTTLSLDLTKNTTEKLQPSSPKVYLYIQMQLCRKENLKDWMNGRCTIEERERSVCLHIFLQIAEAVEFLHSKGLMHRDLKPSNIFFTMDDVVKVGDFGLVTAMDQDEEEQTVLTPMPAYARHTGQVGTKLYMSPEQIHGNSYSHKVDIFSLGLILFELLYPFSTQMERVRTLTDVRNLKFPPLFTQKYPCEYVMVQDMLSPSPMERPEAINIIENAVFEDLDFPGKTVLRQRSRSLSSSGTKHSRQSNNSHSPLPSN

CDK7, construct: Full length, human (from UniProt P50613)
relative phosphorylation
Conditions	at +1	at +2	at +3	at +4	at -1	at -2	at -3	at -4	at -5
A fixed	0.369	1.2	1.11	0.982	0.638	1.14	1.06	1.05	1.12
D fixed	0.303	0.747	0.502	0.558	0.367	0.385	0.671	0.621	0.658
E fixed	0.274	0.589	0.433	0.506	0.276	0.408	0.598	0.586	0.518
F fixed	0.271	0.709	1.05	1	0.977	0.484	0.676	0.812	1.01
G fixed	0.981	1.34	1.04	1.22	0.999	0.965	1.44	1.24	1.12
H fixed	0.317	1.06	1.02	1.24	0.9	0.586	0.936	1.16	1.36
I fixed	0.339	0.81	0.854	0.956	0.385	1.28	0.647	0.734	0.728
K fixed	0.288	1.13	0.904	0.814	1.27	0.802	1.26	1.25	1.3
L fixed	0.33	0.774	1.05	0.932	1.04	1.18	0.608	0.81	0.863
M fixed	0.333	0.871	1.02	1.04	1.09	0.978	0.793	0.975	0.878
N fixed	0.449	1.13	0.826	0.937	0.602	0.818	0.949	1.11	0.986
P fixed	11.1	1.57	1.34	1.18	1.02	3.51	2	1.37	1.07
Q fixed	0.354	1.04	0.831	1.07	0.919	0.781	1.06	1.03	0.845
R fixed	0.294	1.36	0.624	0.727	1.56	1.14	1.87	1.31	1.22
V fixed	0.417	0.9	1.04	0.878	0.62	1.3	0.842	0.681	0.693
W fixed	0.304	0.802	1.32	1.47	3.04	0.639	0.774	1.16	1.49
Y fixed	0.283	0.982	2.04	1.48	1.29	0.605	0.825	1.1	1.14
pThr fixed	0.469	0.566	0.573	0.503	0.352	0.645	0.713	0.697	0.612
pTyr fixed	0.357	0.583	0.641	0.713	0.475	0.37	0.568	0.63	0.522

CDK8, construct: Full length*, human (from UniProt P49336)
relative phosphorylation
Conditions	at +1	at +2	at +3	at +4	at -1	at -2	at -3	at -4	at -5
A fixed	0.287	1.26	1.05	1.01	1.02	1.65	1.08	0.959	0.86
D fixed	0.179	0.789	0.841	1.19	0.791	0.579	0.887	1.18	1.4
E fixed	0.16	0.729	0.743	0.882	0.556	0.602	0.934	1.21	1.32
F fixed	0.26	0.84	0.734	0.893	1.03	0.43	1.04	1.1	1.33
G fixed	0.807	1.31	1.47	1.15	1.47	0.849	1.29	0.931	0.883
H fixed	0.408	1.03	1.12	1.06	0.982	0.643	0.947	1.08	1.01
I fixed	0.463	0.891	0.735	1.04	0.286	1.06	0.684	0.944	0.864
K fixed	0.239	1.11	0.649	0.698	1.03	0.309	0.592	0.842	0.747
L fixed	0.291	1.02	0.694	0.949	1.04	0.936	0.683	0.91	0.911
M fixed	0.36	1.12	1.02	0.955	1.44	1.05	1.48	1.05	0.78
N fixed	0.51	0.899	1.39	0.862	0.866	0.697	1.25	0.836	0.887
P fixed	10.9	0.801	1.91	1.09	1.37	4.62	1.23	0.923	0.896
Q fixed	0.369	1.13	1.03	0.977	1.02	0.876	1.16	0.941	0.917
R fixed	0.231	1.26	0.878	0.847	1.28	0.413	0.631	0.829	0.858
V fixed	1	0.807	0.977	1.09	0.559	1.31	0.698	0.847	0.813
W fixed	0.306	1.02	0.802	1.38	1.19	0.505	1.31	1.21	0.872
Y fixed	0.241	0.976	0.942	0.926	1.07	0.466	1.09	1.21	1.65
pThr fixed	0.423	0.473	0.694	0.882	0.312	0.668	0.74	1.11	0.898
pTyr fixed	0.43	0.934	0.886	0.851	0.758	0.614	0.745	1.13	1.11

CLK4, construct: aa128-481, human (from UniProt Q9HAZ1)
relative phosphorylation
Conditions	at +1	at +2	at +3	at +4	at -1	at -2	at -3	at -4	at -5
A fixed	0.617	1.09	0.764	0.712	0.792	1.63	0.609	0.923	0.926
D fixed	0.293	0.989	0.691	1.07	0.403	0.553	0.453	0.649	0.735
E fixed	0.565	0.943	0.592	1.1	0.48	1.52	0.374	0.721	0.595
F fixed	0.435	0.928	0.771	0.91	0.705	0.337	0.327	0.858	1.39
G fixed	0.628	1.04	0.925	0.889	0.975	0.943	0.553	1.09	1.02
H fixed	0.7	1.28	1.1	1.06	1.18	0.546	0.709	0.979	1.05
I fixed	1	0.795	0.61	0.869	0.55	0.343	0.332	0.857	0.786
K fixed	0.807	1.36	2.5	1.26	2.09	0.978	2.16	1.72	1.47
L fixed	0.784	0.877	0.731	0.8	0.935	0.461	0.394	0.781	0.891
M fixed	0.727	0.837	0.717	1.02	1.04	0.443	0.429	0.884	0.69
N fixed	0.498	0.804	0.822	0.935	0.865	0.42	0.476	0.807	0.881
P fixed	5.64	1.21	2.04	0.901	1	0.453	0.405	0.806	0.909
Q fixed	0.793	0.929	0.795	1.07	1.12	0.717	0.509	0.839	0.827
R fixed	0.853	1.33	1.7	1.28	2.36	6.56	8.11	2.25	1.82
V fixed	1.59	1.04	0.67	0.772	0.704	0.386	0.331	0.755	0.771
W fixed	0.486	0.754	0.763	1.25	0.895	0.348	0.429	1.1	1.24
Y fixed	0.574	0.792	0.8	1.1	0.89	0.356	0.399	0.973	1
pThr fixed	0.796	1.92	0.773	2.01	0.343	0.467	0.603	0.846	0.81
pTyr fixed	0.516	0.647	1.52	1.16	0.546	0.295	0.356	0.732	0.938

EIF2AK3, construct: aa536-1116, human (from UniProt Q9NZJ5)
relative phosphorylation
Conditions	at +1	at +2	at +3	at +4	at -1	at -2	at -3	at -4	at -5
A fixed	0.888	1.08	0.836	0.863	0.745	0.615	1.02	1.02	1.07
D fixed	0.348	0.419	0.491	0.684	0.71	3.5	1.61	1.18	1
E fixed	0.676	0.277	0.555	0.678	0.62	3	1.23	0.94	0.712
F fixed	1.08	0.921	1.09	0.92	1.21	1.22	1.04	1.05	1.32
G fixed	1.02	1.14	1.89	1.14	0.458	0.748	0.825	1.05	0.984
H fixed	0.898	1.28	1.31	1.12	1.21	0.712	0.911	1.08	1.17
I fixed	1.05	0.748	0.703	0.838	1.2	0.527	0.819	0.774	0.837
K fixed	1.12	1.06	1.09	1.28	1.19	0.472	0.798	0.942	0.996
L fixed	0.907	0.609	0.8	0.822	1.11	0.877	1.06	0.79	1.01
M fixed	1.6	0.823	0.814	0.871	1.22	0.942	1.06	0.956	0.9
N fixed	0.86	1.12	0.821	0.95	0.879	0.698	0.856	0.788	0.788
P fixed	0.245	0.662	1.48	1.24	0.582	0.429	0.749	0.871	0.837
Q fixed	1.43	0.719	0.778	0.865	0.837	0.615	0.767	0.751	0.713
R fixed	2.11	2.2	1.43	1.53	1.34	0.576	0.934	1.1	1.06
V fixed	0.92	0.709	0.664	0.78	1.25	0.544	0.839	0.825	0.769
W fixed	0.809	1.44	1.25	1.3	1.07	0.892	1.42	1.66	1.49
Y fixed	1.04	1.79	0.999	1.12	1.36	0.629	1.06	1.22	1.34
pThr fixed	0.47	0.307	0.402	0.715	0.478	1.31	1.05	0.722	0.848
pTyr fixed	0.828	0.387	0.715	0.796	0.726	0.527	1.05	0.682	0.847
